target: T1, His6-LexA (Streptomyces mobaraensis NBRC 13819) (UniProt A0A5N5W758); assay: EMSA; conditions: EMSA: 0, 100, 200 ng His6-LexA, 25 nM probe, 20 uL; 30 mM KCl, 10 mM Tris-HCl (pH not stated), 0.4 mM DTT, 2 mM MgCl2, 0.2 mM EDTA, 2% glycerol; 30 min, 30 C …
T1 sequence: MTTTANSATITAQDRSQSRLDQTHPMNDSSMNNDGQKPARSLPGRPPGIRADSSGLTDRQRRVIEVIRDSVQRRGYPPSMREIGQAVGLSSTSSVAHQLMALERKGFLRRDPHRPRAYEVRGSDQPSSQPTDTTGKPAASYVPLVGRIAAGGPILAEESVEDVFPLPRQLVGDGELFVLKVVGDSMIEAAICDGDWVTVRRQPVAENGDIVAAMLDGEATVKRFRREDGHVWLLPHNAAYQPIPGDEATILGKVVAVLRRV

Q: With “CGGTGTGGAAGGTGGCGTGTACGGCATACGGATCGGAAGTGTCGTACCGCAGACCTGCGGGTACAGGCAGTGACGATTCGCTCGACACAACGAGGCGCAGGTGCAG (double strand) [Probe ssgA (106 bp)]” as the sequence, how does the binding read?
A: binds

Q: For “GAAAAGCGAACCAATTGGAATGTGGGGCCGGAACGGGAGGTCAGGCGTTCGACGTCACACTCCGCAGGGTACCGCTCACAGCCCGAAGCGGCGCTGGAGGTCTCCCAACTG (double strand) [Probe marR1 (112 bp)]”, which binding is on record?
A: binds

Q: For “CAGGCTGGTACTGATCGTCACCTGCGCGATTGGCGAGACACCTGCTGAGCAGACCGCCGCGGACCATCTCGGACACCTGCCCGACCGCTGCATTCGCCAACCGCCTCCGCACTCTCAACGACG (double strand) [Probe whiB (123 bp)]”, which binding is on record?
A: binds

Source: paper PMC11157053
